Bridges are numbered along the chain shown (N, C = ends). [ ]: non-standard residue; d: D form. 2Nal = N[C@@H](Cc1ccc2ccccc2c1)C(=O)O; Cit = NC(=O)NCCC[C@H](N)C(=O)O
B1: Example 55 (peptide)
peptide: cyclo(YR[Cit]CRG[dP]WR[2Nal]CYQK[dP]P)
modifications: disulfide 4-11
SMILES: N=C(N)NCCC[C@@H]1NC(=O)[C@@H]2CSSC[C@H](NC(=O)[C@H](Cc3ccc4ccccc4c3)NC(=O)[C@H](CCCNC(=N)N)NC(=O)[C@H](Cc3c[nH]c4ccccc34)NC(=O)[C@H]3CCCN3C(=O)CNC1=O)C(=O)N[C@@H](Cc1ccc(O)cc1)C(=O)N[C@@H](CCC(N)=O)C(=O)N[C@@H](CCCCN)C(=O)N1CCC[C@@H]1C(=O)N1CCC[C@H]1C(=O)N[C@@H](Cc1ccc(O)cc1)C(=O)N[C@@H](CCCNC(=N)N)C(=O)N[C@@H](CCCNC(N)=O)C(=O)N2
B2: Example 58 (peptide)
peptide: cyclo(YR[Cit]CRG[dP]RR[2Nal]CYHK[dP]P)
modifications: disulfide 4-11
SMILES: N=C(N)NCCC[C@@H]1NC(=O)[C@@H]2CSSC[C@H](NC(=O)[C@H](Cc3ccc4ccccc4c3)NC(=O)[C@H](CCCNC(=N)N)NC(=O)[C@H](CCCNC(=N)N)NC(=O)[C@H]3CCCN3C(=O)CNC1=O)C(=O)N[C@@H](Cc1ccc(O)cc1)C(=O)N[C@@H](Cc1c[nH]cn1)C(=O)N[C@@H](CCCCN)C(=O)N1CCC[C@@H]1C(=O)N1CCC[C@H]1C(=O)N[C@@H](Cc1ccc(O)cc1)C(=O)N[C@@H](CCCNC(=N)N)C(=O)N[C@@H](CCCNC(N)=O)C(=O)N2
B3: Example 63 (peptide)
peptide: cyclo(RR[Cit]CRG[dP]RR[2Nal]CYQK[dP]P)
modifications: disulfide 4-11
SMILES: N=C(N)NCCC[C@@H]1NC(=O)[C@@H]2CSSC[C@H](NC(=O)[C@H](Cc3ccc4ccccc4c3)NC(=O)[C@H](CCCNC(=N)N)NC(=O)[C@H](CCCNC(=N)N)NC(=O)[C@H]3CCCN3C(=O)CNC1=O)C(=O)N[C@@H](Cc1ccc(O)cc1)C(=O)N[C@@H](CCC(N)=O)C(=O)N[C@@H](CCCCN)C(=O)N1CCC[C@@H]1C(=O)N1CCC[C@H]1C(=O)N[C@@H](CCCNC(=N)N)C(=O)N[C@@H](CCCNC(=N)N)C(=O)N[C@@H](CCCNC(N)=O)C(=O)N2
B4: Example 60 (peptide)
peptide: cyclo(YR[Cit]CRG[dP]RR[2Nal]CYQQ[dP]P)
modifications: disulfide 4-11
SMILES: N=C(N)NCCC[C@@H]1NC(=O)[C@@H]2CSSC[C@H](NC(=O)[C@H](Cc3ccc4ccccc4c3)NC(=O)[C@H](CCCNC(=N)N)NC(=O)[C@H](CCCNC(=N)N)NC(=O)[C@H]3CCCN3C(=O)CNC1=O)C(=O)N[C@@H](Cc1ccc(O)cc1)C(=O)N[C@@H](CCC(N)=O)C(=O)N[C@@H](CCC(N)=O)C(=O)N1CCC[C@@H]1C(=O)N1CCC[C@H]1C(=O)N[C@@H](Cc1ccc(O)cc1)C(=O)N[C@@H](CCCNC(=N)N)C(=O)N[C@@H](CCCNC(N)=O)C(=O)N2
B5: Example 38 (peptide)
peptide: cyclo(YR[Cit]FRG[dP]RR[2Nal]FY[Cit]K[dP]P)
SMILES: N=C(N)NCCC[C@@H]1NC(=O)[C@H](Cc2ccccc2)NC(=O)[C@H](CCCNC(N)=O)NC(=O)[C@H](CCCNC(=N)N)NC(=O)[C@H](Cc2ccc(O)cc2)NC(=O)[C@@H]2CCCN2C(=O)[C@H]2CCCN2C(=O)[C@H](CCCCN)NC(=O)[C@H](CCCNC(N)=O)NC(=O)[C@H](Cc2ccc(O)cc2)NC(=O)[C@H](Cc2ccccc2)NC(=O)[C@H](Cc2ccc3ccccc3c2)NC(=O)[C@H](CCCNC(=N)N)NC(=O)[C@H](CCCNC(=N)N)NC(=O)[C@H]2CCCN2C(=O)CNC1=O
B6: Example 62 (peptide)
peptide: cyclo(QR[Cit]CRG[dP]RR[2Nal]CYQK[dP]P)
modifications: disulfide 4-11
SMILES: N=C(N)NCCC[C@@H]1NC(=O)[C@@H]2CSSC[C@H](NC(=O)[C@H](Cc3ccc4ccccc4c3)NC(=O)[C@H](CCCNC(=N)N)NC(=O)[C@H](CCCNC(=N)N)NC(=O)[C@H]3CCCN3C(=O)CNC1=O)C(=O)N[C@@H](Cc1ccc(O)cc1)C(=O)N[C@@H](CCC(N)=O)C(=O)N[C@@H](CCCCN)C(=O)N1CCC[C@@H]1C(=O)N1CCC[C@H]1C(=O)N[C@@H](CCC(N)=O)C(=O)N[C@@H](CCCNC(=N)N)C(=O)N[C@@H](CCCNC(N)=O)C(=O)N2
B7: Example 2 (peptide)
peptide: cyclo(YR[Cit]VR[dR]R[2Nal]VY[Cit]K[dP]P)
SMILES: CC(C)[C@@H]1NC(=O)[C@H](Cc2ccc3ccccc3c2)NC(=O)[C@H](CCCNC(=N)N)NC(=O)[C@@H](CCCNC(=N)N)NC(=O)[C@H](CCCNC(=N)N)NC(=O)[C@H](C(C)C)NC(=O)[C@H](CCCNC(N)=O)NC(=O)[C@H](CCCNC(=N)N)NC(=O)[C@H](Cc2ccc(O)cc2)NC(=O)[C@@H]2CCCN2C(=O)[C@H]2CCCN2C(=O)[C@H](CCCCN)NC(=O)[C@H](CCCNC(N)=O)NC(=O)[C@H](Cc2ccc(O)cc2)NC1=O
B8: Example 53 (peptide)
peptide: cyclo(YR[Cit]CRVGRR[2Nal]CY[Cit]K[dP]P)
modifications: disulfide 4-11
SMILES: CC(C)[C@@H]1NC(=O)[C@H](CCCNC(=N)N)NC(=O)[C@@H]2CSSC[C@H](NC(=O)[C@H](Cc3ccc4ccccc4c3)NC(=O)[C@H](CCCNC(=N)N)NC(=O)[C@H](CCCNC(=N)N)NC(=O)CNC1=O)C(=O)N[C@@H](Cc1ccc(O)cc1)C(=O)N[C@@H](CCCNC(N)=O)C(=O)N[C@@H](CCCCN)C(=O)N1CCC[C@@H]1C(=O)N1CCC[C@H]1C(=O)N[C@@H](Cc1ccc(O)cc1)C(=O)N[C@@H](CCCNC(=N)N)C(=O)N[C@@H](CCCNC(N)=O)C(=O)N2
B9: Example 56 (peptide)
peptide: cyclo(YR[Cit]CRG[dP]TR[2Nal]CYQK[dP]P)
modifications: disulfide 4-11
SMILES: C[C@@H](O)[C@@H]1NC(=O)[C@H]2CCCN2C(=O)CNC(=O)[C@H](CCCNC(=N)N)NC(=O)[C@@H]2CSSC[C@H](NC(=O)[C@H](Cc3ccc4ccccc4c3)NC(=O)[C@H](CCCNC(=N)N)NC1=O)C(=O)N[C@@H](Cc1ccc(O)cc1)C(=O)N[C@@H](CCC(N)=O)C(=O)N[C@@H](CCCCN)C(=O)N1CCC[C@@H]1C(=O)N1CCC[C@H]1C(=O)N[C@@H](Cc1ccc(O)cc1)C(=O)N[C@@H](CCCNC(=N)N)C(=O)N[C@@H](CCCNC(N)=O)C(=O)N2
B10: Example 57 (peptide)
peptide: cyclo(YR[Cit]CRG[dP]RR[2Nal]CYRK[dP]P)
modifications: disulfide 4-11
SMILES: N=C(N)NCCC[C@@H]1NC(=O)[C@@H]2CSSC[C@H](NC(=O)[C@H](Cc3ccc4ccccc4c3)NC(=O)[C@H](CCCNC(=N)N)NC(=O)[C@H](CCCNC(=N)N)NC(=O)[C@H]3CCCN3C(=O)CNC1=O)C(=O)N[C@@H](Cc1ccc(O)cc1)C(=O)N[C@@H](CCCNC(=N)N)C(=O)N[C@@H](CCCCN)C(=O)N1CCC[C@@H]1C(=O)N1CCC[C@H]1C(=O)N[C@@H](Cc1ccc(O)cc1)C(=O)N[C@@H](CCCNC(=N)N)C(=O)N[C@@H](CCCNC(N)=O)C(=O)N2
B11: Example 54 (peptide)
peptide: cyclo(YR[Cit]CRG[dP]YR[2Nal]CYQK[dP]P)
modifications: disulfide 4-11
SMILES: N=C(N)NCCC[C@@H]1NC(=O)[C@@H]2CSSC[C@H](NC(=O)[C@H](Cc3ccc4ccccc4c3)NC(=O)[C@H](CCCNC(=N)N)NC(=O)[C@H](Cc3ccc(O)cc3)NC(=O)[C@H]3CCCN3C(=O)CNC1=O)C(=O)N[C@@H](Cc1ccc(O)cc1)C(=O)N[C@@H](CCC(N)=O)C(=O)N[C@@H](CCCCN)C(=O)N1CCC[C@@H]1C(=O)N1CCC[C@H]1C(=O)N[C@@H](Cc1ccc(O)cc1)C(=O)N[C@@H](CCCNC(=N)N)C(=O)N[C@@H](CCCNC(N)=O)C(=O)N2
B12: Example 61 (peptide)
peptide: cyclo(YR[Cit]CRG[dP]RR[2Nal]CYQE[dP]P)
modifications: disulfide 4-11
SMILES: N=C(N)NCCC[C@@H]1NC(=O)[C@@H]2CSSC[C@H](NC(=O)[C@H](Cc3ccc4ccccc4c3)NC(=O)[C@H](CCCNC(=N)N)NC(=O)[C@H](CCCNC(=N)N)NC(=O)[C@H]3CCCN3C(=O)CNC1=O)C(=O)N[C@@H](Cc1ccc(O)cc1)C(=O)N[C@@H](CCC(N)=O)C(=O)N[C@@H](CCC(=O)O)C(=O)N1CCC[C@@H]1C(=O)N1CCC[C@H]1C(=O)N[C@@H](Cc1ccc(O)cc1)C(=O)N[C@@H](CCCNC(=N)N)C(=O)N[C@@H](CCCNC(N)=O)C(=O)N2
B13: Example 59 (peptide)
peptide: cyclo(YR[Cit]CRG[dP]RR[2Nal]CYYK[dP]P)
modifications: disulfide 4-11
SMILES: N=C(N)NCCC[C@@H]1NC(=O)[C@@H]2CSSC[C@H](NC(=O)[C@H](Cc3ccc4ccccc4c3)NC(=O)[C@H](CCCNC(=N)N)NC(=O)[C@H](CCCNC(=N)N)NC(=O)[C@H]3CCCN3C(=O)CNC1=O)C(=O)N[C@@H](Cc1ccc(O)cc1)C(=O)N[C@@H](Cc1ccc(O)cc1)C(=O)N[C@@H](CCCCN)C(=O)N1CCC[C@@H]1C(=O)N1CCC[C@H]1C(=O)N[C@@H](Cc1ccc(O)cc1)C(=O)N[C@@H](CCCNC(=N)N)C(=O)N[C@@H](CCCNC(N)=O)C(=O)N2
B14: Example 64 (peptide)
peptide: cyclo(HR[Cit]CRG[dP]RR[2Nal]CYQK[dP]P)
modifications: disulfide 4-11
SMILES: N=C(N)NCCC[C@@H]1NC(=O)[C@@H]2CSSC[C@H](NC(=O)[C@H](Cc3ccc4ccccc4c3)NC(=O)[C@H](CCCNC(=N)N)NC(=O)[C@H](CCCNC(=N)N)NC(=O)[C@H]3CCCN3C(=O)CNC1=O)C(=O)N[C@@H](Cc1ccc(O)cc1)C(=O)N[C@@H](CCC(N)=O)C(=O)N[C@@H](CCCCN)C(=O)N1CCC[C@@H]1C(=O)N1CCC[C@H]1C(=O)N[C@@H](Cc1c[nH]cn1)C(=O)N[C@@H](CCCNC(=N)N)C(=O)N[C@@H](CCCNC(N)=O)C(=O)N2

Biological target: human CXCR4 (human, UniProt P61073 1-352)
Assay: cell-based or functional assay

human CXCR4, sequence (P61073 whole entry): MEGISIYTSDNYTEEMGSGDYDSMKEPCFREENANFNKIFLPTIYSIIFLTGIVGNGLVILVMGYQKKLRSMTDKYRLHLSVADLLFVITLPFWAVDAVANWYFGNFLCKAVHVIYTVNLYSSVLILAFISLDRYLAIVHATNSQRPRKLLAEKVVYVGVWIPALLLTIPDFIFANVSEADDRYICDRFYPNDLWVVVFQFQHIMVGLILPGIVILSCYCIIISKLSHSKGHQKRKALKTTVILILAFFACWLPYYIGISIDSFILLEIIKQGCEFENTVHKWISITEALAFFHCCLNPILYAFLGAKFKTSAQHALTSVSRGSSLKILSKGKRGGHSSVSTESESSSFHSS

IC50 (nM) Ca2+ assay (method 2) | IC50 (nM) Ca2+ assay (method 1) | Binder
6.3 nM |  | B1
10.5 nM |  | B2
2 nM |  | B3
0.18 nM |  | B4
 | 720 nM | B5
1.8 nM |  | B6
 | 2830 nM | B7
 | 57.8 nM | B8
0.74 nM |  | B9
4.2 nM |  | B10
6.9 nM |  | B11
4.1 nM |  | B12
7.8 nM |  | B13
3.3 nM |  | B14
